{"source": "patent US20260159591A1", "key": {"[1]": {"target": "murine ITGA11 expressed in CHO cells (murine) (UniProt P61622)", "sequence (P61622 23-1188)": "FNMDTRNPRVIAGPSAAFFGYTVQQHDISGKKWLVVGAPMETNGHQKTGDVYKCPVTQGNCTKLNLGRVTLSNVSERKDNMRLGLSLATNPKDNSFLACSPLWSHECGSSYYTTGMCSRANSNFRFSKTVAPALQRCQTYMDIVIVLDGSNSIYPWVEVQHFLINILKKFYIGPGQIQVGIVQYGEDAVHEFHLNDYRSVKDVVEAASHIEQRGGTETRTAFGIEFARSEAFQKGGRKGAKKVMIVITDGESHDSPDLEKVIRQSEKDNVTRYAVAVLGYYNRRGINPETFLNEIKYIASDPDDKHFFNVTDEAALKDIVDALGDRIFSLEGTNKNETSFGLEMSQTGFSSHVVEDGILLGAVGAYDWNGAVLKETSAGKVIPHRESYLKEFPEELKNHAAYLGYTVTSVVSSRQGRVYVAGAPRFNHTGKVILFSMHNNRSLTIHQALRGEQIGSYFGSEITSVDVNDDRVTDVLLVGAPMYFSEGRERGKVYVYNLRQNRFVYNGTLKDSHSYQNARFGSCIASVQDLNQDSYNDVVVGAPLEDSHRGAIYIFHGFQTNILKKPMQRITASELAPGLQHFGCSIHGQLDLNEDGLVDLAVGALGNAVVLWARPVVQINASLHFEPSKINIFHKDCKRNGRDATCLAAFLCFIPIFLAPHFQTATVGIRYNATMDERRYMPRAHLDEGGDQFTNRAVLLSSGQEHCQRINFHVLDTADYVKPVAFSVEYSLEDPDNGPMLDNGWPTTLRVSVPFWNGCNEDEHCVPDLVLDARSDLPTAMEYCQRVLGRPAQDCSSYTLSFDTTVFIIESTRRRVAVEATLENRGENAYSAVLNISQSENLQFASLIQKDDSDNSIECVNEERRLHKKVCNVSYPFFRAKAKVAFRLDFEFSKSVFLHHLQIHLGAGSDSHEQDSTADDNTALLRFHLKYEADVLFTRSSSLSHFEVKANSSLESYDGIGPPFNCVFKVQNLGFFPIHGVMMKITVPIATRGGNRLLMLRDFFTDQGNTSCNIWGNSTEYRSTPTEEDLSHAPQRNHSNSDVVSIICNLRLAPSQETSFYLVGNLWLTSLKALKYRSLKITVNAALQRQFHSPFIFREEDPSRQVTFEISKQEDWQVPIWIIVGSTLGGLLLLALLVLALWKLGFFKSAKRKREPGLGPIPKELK", "experiment": "flow cytometry, 34 nM antibody on CHO cells expressing murine ITGA11"}, "[2]": {"target": "human ITGA11 expressed in mouse C2C12 cells (human) (UniProt Q9UKX5)", "sequence (Q9UKX5 23-1188)": "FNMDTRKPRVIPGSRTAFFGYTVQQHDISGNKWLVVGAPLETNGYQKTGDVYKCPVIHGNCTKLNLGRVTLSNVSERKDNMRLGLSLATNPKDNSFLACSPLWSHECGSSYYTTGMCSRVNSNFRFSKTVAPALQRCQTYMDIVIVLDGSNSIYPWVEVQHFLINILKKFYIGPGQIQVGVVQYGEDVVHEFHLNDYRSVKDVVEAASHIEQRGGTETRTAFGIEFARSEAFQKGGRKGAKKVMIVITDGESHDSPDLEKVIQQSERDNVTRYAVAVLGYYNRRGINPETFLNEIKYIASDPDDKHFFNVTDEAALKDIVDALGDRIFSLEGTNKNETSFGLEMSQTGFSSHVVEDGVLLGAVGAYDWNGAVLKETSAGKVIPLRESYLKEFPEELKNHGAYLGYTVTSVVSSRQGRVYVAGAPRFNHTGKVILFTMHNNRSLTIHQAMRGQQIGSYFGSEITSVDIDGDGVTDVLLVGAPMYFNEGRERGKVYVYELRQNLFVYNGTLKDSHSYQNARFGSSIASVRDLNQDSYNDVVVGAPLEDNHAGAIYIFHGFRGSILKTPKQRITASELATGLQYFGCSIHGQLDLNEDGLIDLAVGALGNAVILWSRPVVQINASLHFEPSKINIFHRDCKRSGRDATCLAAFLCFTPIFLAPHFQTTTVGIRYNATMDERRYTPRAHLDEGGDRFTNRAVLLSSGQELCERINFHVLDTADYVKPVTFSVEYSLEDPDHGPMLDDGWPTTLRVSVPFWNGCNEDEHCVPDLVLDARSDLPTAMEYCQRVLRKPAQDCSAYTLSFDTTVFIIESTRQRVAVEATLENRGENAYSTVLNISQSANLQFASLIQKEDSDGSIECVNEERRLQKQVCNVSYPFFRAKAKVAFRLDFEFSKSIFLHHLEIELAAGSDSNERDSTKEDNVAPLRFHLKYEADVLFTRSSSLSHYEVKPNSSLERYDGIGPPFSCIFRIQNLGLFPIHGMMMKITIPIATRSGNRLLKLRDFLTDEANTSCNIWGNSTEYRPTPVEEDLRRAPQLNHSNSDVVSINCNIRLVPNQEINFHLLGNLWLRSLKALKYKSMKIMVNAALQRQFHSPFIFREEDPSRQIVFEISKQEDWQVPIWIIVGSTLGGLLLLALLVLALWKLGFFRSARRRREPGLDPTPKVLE", "experiment": "flow cytometry, 34 nM antibody on C2C12 cells expressing human ITGA11"}}}
{"substance": "Control IgG4 (antibody)", "values": [{"measurement": "MFI", "setting": "[1]", "result": 513, "unit": "MFI"}, {"measurement": "MFI", "setting": "[2]", "result": 557, "unit": "MFI"}]}
